Assay results: patent US20260167734A1 (PROVIDENCE HEALTH AND SERVICES OREGON, published 2026)
Positions count from the first letter of the chain named. Numbers in names are those of the source. Values belong to the binder of their own block, whether it stands above or below them.

Legend:
[1] = molecular target: T1, human FasL, cell surface (membrane-bound) (human, UniProt P48023 1-281); assay: cell-based or functional assay
T1 sequence: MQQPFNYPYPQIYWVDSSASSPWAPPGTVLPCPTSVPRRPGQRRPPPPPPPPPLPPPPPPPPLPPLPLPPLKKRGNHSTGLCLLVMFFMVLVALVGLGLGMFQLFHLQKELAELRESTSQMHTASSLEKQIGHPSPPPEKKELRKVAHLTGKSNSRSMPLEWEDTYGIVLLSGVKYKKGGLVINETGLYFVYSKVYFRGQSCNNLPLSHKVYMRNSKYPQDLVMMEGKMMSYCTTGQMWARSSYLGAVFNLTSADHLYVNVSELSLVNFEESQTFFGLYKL

[2] = molecular target: T2, soluble human Fas ligand (FasL) (human, UniProt P48023 103-281, limits assumed); assay: multi-dose SPR, BIACORE 8K; multi-dose SPR using BIACORE 8K
T2 construct: also called sFasL; recombinant soluble FasL
T2 sequence: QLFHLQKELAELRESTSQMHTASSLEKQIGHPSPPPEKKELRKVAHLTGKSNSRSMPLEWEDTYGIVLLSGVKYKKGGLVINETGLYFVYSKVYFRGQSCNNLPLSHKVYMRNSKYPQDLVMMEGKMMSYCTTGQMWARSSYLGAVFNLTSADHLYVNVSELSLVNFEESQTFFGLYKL
Description: (§1) Binding of M3T01 to human FasL was measured by multi-dose SPR using BIACORE™ 8K. […] In another study, binding of M3T01 to soluble FasL (sFasL) was measured by ELISA.

[3] = molecular target: T2, soluble human Fas ligand (FasL); assay: single-dose SPR
From the text: Several variants of the M3T01 antibody were isolated and tested for binding affinity to human FasL using a single-dose SPR affinity measurement. Each variant clone includes the same CDR sequences as M3T01 but includes one or more amino acid substitutions in the framework region (FR) of the VH domain and/or VL domain. The variant sequences, substitutions relative to the M3T01 VH and VL domains, and measured binding affinity are listed in Table 2. The binding affinities reported in Table 2 are from a single-dose SPR study.

[4] = molecular target: T2, soluble human Fas ligand (FasL); assay: SPR, BIACORE 8K, multi-dose; M3T01 in column 'Ligand', Recombinant Human Fas Ligand in column 'Analyte'
Description: as §1

rat FasL, cell surface = molecular target: T3, rat FasL, cell surface (rat, UniProt P36940 1-278); assay: flow cytometry, HEK293T cells transfected with rat FasL
T3 construct: Expressed on transfected HEK293T cells
T3 sequence: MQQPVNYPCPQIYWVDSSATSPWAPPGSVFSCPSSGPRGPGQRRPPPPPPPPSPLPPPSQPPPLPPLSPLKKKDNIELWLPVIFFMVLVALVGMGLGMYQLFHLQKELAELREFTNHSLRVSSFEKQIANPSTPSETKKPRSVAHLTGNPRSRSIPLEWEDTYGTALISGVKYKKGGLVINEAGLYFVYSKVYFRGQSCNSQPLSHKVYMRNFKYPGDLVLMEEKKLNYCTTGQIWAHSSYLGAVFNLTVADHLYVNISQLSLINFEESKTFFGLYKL
Description: (§2) FIG. 2B: Binding of M3T01 to cell surface FasL across multiple species (human, cynomolgus macaque, rat, and mouse). M3T01 staining of HEK293T cells transfected with vectors expressing FasL from various species was measured by flow cytometry.
(§3) Next, assays were performed to evaluate binding of M3T01 to cell-surface, membrane-bound FasL from a variety of different species. HEK293T cells were transfected with vectors expressing either mouse, human, rat or cynomolgus macaque FasL and binding by M3T01 was measured by flow cytometry.

mouse FasL, cell surface = molecular target: T4, mouse FasL, cell surface (mouse, UniProt P41047 1-279); assay: flow cytometry, HEK293T cells transfected with mouse FasL
T4 construct: Expressed on transfected HEK293T cells
T4 sequence: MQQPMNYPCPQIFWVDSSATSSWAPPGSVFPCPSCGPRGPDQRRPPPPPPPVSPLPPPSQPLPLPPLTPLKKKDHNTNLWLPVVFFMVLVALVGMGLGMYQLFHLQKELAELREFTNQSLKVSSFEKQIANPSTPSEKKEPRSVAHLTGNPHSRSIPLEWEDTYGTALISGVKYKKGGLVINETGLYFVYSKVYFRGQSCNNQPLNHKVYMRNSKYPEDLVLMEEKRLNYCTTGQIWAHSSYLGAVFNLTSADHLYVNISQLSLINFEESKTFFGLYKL
Description: as §2, §3

[5] = molecular target: T2, soluble human Fas ligand (FasL); assay: ELISA on soluble FasL
[6] = molecular target: T5, cynomolgus macaque FasL, cell surface (cynomolgus macaque, UniProt P63308 1-280); assay: flow cytometry, HEK293T cells transfected with cynomolgus macaque FasL
T5 construct: Expressed on transfected HEK293T cells
T5 sequence: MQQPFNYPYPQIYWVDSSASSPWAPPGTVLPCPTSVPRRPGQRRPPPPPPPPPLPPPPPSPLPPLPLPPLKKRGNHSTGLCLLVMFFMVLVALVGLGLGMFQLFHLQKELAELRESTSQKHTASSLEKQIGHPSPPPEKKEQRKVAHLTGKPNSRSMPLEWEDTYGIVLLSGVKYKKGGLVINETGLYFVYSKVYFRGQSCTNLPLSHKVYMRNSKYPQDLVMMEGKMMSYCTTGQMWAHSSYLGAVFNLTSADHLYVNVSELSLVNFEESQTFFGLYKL
Description: as §2, §3

inhibition of FasL-mediated apoptosis of Jurkat cells (annexin-V externalization, flow cytometry), IC50 [1]: 0.33 nM
inhibition of FasL-mediated apoptosis of Jurkat cells, potency relative to sCD95-Fc [1]: 310 fold
Kd [2]: 0.974 nM
Kd [3]: 3.2 nM
koff [4]: 0.000235 s⁻¹
kon [4]: 242000 M⁻¹ s⁻¹
binding result (rat FasL, cell surface): binds
binding result (mouse FasL, cell surface): binds
EC50 (read off the curve) [5]: ~0.02 nM
binding result [6]: binds
B1: M3T01 (antibody, V domains shown)
VH: QVQLVESGGGVVQPGRSLRLSCAASGFTFSTYGIHWVRQAPGKGLEWVAVIWYDGSDKFYADSVKGRFTISRDNSKNTLYLQMNSLRAEDTAVYYCARDRDNWNYFDYWGQGTLVTVSS
VL: DIQMTQSPSTLSASVGDRVTITCRASQSISSWLAWYQQKPGKAPKFLIYQASSLESGVPSRFSGSGSGTEFTLTISSLQPDDFATYYCQQYNSYITFGQGTRLEIKR
notes: Fully human IgG4/kappa with S228P; also called M27.2

Kd [3]: 1.96 nM
B2: M27.3 (antibody, V domains shown)
VH: B1 VH with N77D, Q82E, V93M
VL: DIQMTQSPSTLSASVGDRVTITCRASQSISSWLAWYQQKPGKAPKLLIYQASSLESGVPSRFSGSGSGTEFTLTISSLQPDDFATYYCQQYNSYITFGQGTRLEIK
notes: Variant clone of M3T01 with the same CDRs

Kd [3]: 1.36 nM
B3: M27.1 (antibody, V domains shown)
VH: B1 VH with N77D, Q82E, V93M
VL: DIQMTQSPSTLSASVGDRVTITCRASQSISSWLAWYQQKPGKAPKFLIYQASSLESGVPSRFSGSGSGTEFTLTISSLQPDDFATYYCQQYNSYITFGQGTRLEIK
notes: as for B2

Kd [3]: 3.44 nM
B4: M27.5 (antibody, V domains shown)
VH: B1 VH with N77D, V93M
VL: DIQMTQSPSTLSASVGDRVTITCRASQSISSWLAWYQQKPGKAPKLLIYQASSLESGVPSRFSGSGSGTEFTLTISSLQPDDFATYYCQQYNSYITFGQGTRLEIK
notes: as for B2

Kd [3]: 3.1 nM
B5: M27.4 (antibody, V domains shown)
VH: B1 VH
VL: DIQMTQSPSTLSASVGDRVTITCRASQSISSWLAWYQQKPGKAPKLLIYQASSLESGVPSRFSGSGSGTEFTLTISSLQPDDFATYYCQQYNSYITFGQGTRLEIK
notes: as for B2

Kd [3]: 2.12 nM
B6: M27.6 (antibody, V domains shown)
VH: B1 VH with N77D, Q82E
VL: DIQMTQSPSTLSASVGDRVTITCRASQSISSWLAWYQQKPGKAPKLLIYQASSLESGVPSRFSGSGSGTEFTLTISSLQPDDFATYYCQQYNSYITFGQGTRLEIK
notes: as for B2
